Tests used:
[1] = molecular target: biotin-YY1 spacer peptide (human, UniProt P25490 199-228, biotin (position not given)); assay: SPR
[2] = molecular target: full-length Pho protein (EMSA) (Drosophila melanogaster, UniProt Q8ST83 1-520); assay: native gel or EMSA
[3] = molecular target: biotin-Pho spacer peptide (Drosophila melanogaster, UniProt Q8ST83 145-172, biotin (position not given)); assay: SPR
Chain of biotin-Pho spacer peptide (Q8ST83 145-172): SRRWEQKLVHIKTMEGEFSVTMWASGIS

Chain of biotin-YY1 spacer peptide (P25490 199-228): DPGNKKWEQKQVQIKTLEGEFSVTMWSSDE
Chain of full-length Pho protein (EMSA) (Q8ST83 whole entry): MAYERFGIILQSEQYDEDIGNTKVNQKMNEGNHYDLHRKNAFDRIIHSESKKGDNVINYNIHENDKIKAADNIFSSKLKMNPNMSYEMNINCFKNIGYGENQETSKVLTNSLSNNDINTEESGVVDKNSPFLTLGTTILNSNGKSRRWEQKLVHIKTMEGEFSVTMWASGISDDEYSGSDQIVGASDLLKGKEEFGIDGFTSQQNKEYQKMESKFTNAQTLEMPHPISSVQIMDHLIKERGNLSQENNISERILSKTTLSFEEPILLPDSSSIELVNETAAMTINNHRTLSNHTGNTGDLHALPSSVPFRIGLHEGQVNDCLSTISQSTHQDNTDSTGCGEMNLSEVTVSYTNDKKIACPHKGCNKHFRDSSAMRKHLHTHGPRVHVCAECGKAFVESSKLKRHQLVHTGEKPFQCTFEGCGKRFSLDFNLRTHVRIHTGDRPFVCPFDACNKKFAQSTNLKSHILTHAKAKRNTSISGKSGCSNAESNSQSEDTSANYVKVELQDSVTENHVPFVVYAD

Row | Binder | fold weaker affinity than the Drosophila complex [1] | further results
1 | L3MBTL2 4MBT domain, human (domain or fragment) TGQDALVLGFDWGKFLKDHSYKAAPVSCFKHVPLYDQWEDVMKGMKVEVLNSDAVLPSRVYWIASVIQTAGYRVLLRYEGFENDASHDFWCNLGTVDVHPIGWCAINSKILVPPRTIHAKFTDWKGYLMKRLVGSRTLPVDFHIKMVESMKYPFRQGMRLEVVDKSQVSRTRMAVVDTVIGGRLRLLYEDGDSDDDFWCHMWSPLIHPVGWSRRVGHGIKMSERRSDMAHHPTFRKIYCDAVPYLFKKVRAVYTEGGWFEEGMKLEAIDPLNLGNICVATVCKVLLDGYLMICVDGGPSTDGLDWFCYHASSHAIFPATFCQKNDIELTPPKGYEAQTFNWENYLEKTKSKAAPSRLFNMDCPNHGFKVGMKLEAVDLMEPRLICVATVKRVVHRLLSIHFDGWDSEYDQWVDCESPDIYPVGWCELTGYQLQPPVAAEPATPLKAKEATKKKKKQ | ~50 fold | 
2 | MBTD1 4MBT domain, human (domain or fragment) AKTKAAVSMEGFSWGNYINSNSFIAAPVTCFKHAPMGTCWGDISENVRVEVPNTDCSLPTKVFWIAGIVKLAGYNALLRYEGFENDSGLDFWCNICGSDIHPVGWCAASGKPLVPPRTIQHKYTNWKAFLVKRLTGAKTLPPDFSQKVSESMQYPFKPCMRVEVVDKRHLCRTRVAVVESVIGGRLRLVYEESEDRTDDFWCHMHSPLIHHIGWSRSIGHRFKRSDITKKQDGHFDTPPHLFAKVKEVDQSGEWFKEGMKLEAIDPLNLSTICVATIRKVLADGFLMIGIDGSEAADGSDWFCYHATSPSIFPVGFCEINMIELTPPRGYTKLPFKWFDYLRETGSIAAPVKLFNKDVPNHGFRVGMKLEAVDLMEPRLICVATVTRIIHRLLRIHFDGWEEEYDQWVDCESPDLYPVGWCQLTGYQLQPPASQSSR | ~50 fold | 
3 | Sfmbt 4MBT domain (Sfmbt 531-980), wild type (domain or fragment, Drosophila melanogaster, UniProt Q9VK33 531-980, looked up) DPTHSYDWLPRLSKENFNAAPVTCFPHAPGCEVWDNLGVGMKVEVENTDCDSIEVIQPGQTPTSFWVATILEIKGYKALMSYEGFDTDSHDFWVNLCNAEVHSVGWCATRGKPLIPPRTIEHKYKDWKDFLVGRLSGARTLPSNFYNKINDSLQSRFRLGLNLECVDKDRISQVRLATVTKIVGKRLFLRYFDSDDGFWCHEDSPIIHPVGWATTVGHNLAAPQDYLERMLAGREAMIEVHEDDATIELFKMNFTFDEYYSDGKTNSFVEGMKLEAVDPLNLSSICPATVMAVLKFGYMMIRIDSYQPDASGSDWFCYHEKSPCIFPAGFCSVNNISVTPPNGYDSRTFTWEGYLRDTGAVAAGQHLFHRIIPDHGFEVGMSLECADLMDPRLVCVATVARVVGRLLKVHFDGWTDEYDQWLDCESADIYPVGWCVLVNHKLEGPPRVAH |  | binding result [2]: binds
4 | Sfmbt 4MBT S633P/S673P (domain or fragment, Drosophila melanogaster, UniProt Q9VK33 531-980, looked up) DPTHSYDWLPRLSKENFNAAPVTCFPHAPGCEVWDNLGVGMKVEVENTDCDSIEVIQPGQTPTSFWVATILEIKGYKALMSYEGFDTDSHDFWVNLCNAEVHPVGWCATRGKPLIPPRTIEHKYKDWKDFLVGRLSGARTLPPNFYNKINDSLQSRFRLGLNLECVDKDRISQVRLATVTKIVGKRLFLRYFDSDDGFWCHEDSPIIHPVGWATTVGHNLAAPQDYLERMLAGREAMIEVHEDDATIELFKMNFTFDEYYSDGKTNSFVEGMKLEAVDPLNLSSICPATVMAVLKFGYMMIRIDSYQPDASGSDWFCYHEKSPCIFPAGFCSVNNISVTPPNGYDSRTFTWEGYLRDTGAVAAGQHLFHRIIPDHGFEVGMSLECADLMDPRLVCVATVARVVGRLLKVHFDGWTDEYDQWLDCESADIYPVGWCVLVNHKLEGPPRVAH |  | fold decrease in binding affinity against the wild type [3]: 2 fold

Source: publication PMC3828522 (Genes & Development, 2013)
